This is an account of results in the Immune Epitope Database (IEDB).

Experiment [1] deals with HLA-A*02:01. As to the kind of experiment: IEDB peptide-MHC binding, purified MHC/direct/fluorescence; filed as Kd, often an IC50 or EC50 that approximates it; ≥ and ≤ were set here for values at or beyond the usual limits of such assays. The note with it: source organism: Salmonella enterica subsp. enterica serovar Typhimurium.
The target in experiment [2] is HLA-A*02:06. The description is as above. The settings on record: source organism: Salmonella enterica subsp. enterica serovar Typhimurium.
In experiment [3] the target is HLA-A*02:12. Described as above. The note with it: source organism: Salmonella enterica subsp. enterica serovar Typhimurium.
Experiment [4] has as its target HLA-A*03:01. The description is as above. The note with it: source organism: Salmonella enterica subsp. enterica serovar Typhimurium.
The target in experiment [5] is HLA-B*15:01. Described as above. The note with it: source organism: Salmonella enterica subsp. enterica serovar Typhimurium.
Experiment [6] has as its target HLA-B*18:01. Described as above. The note with it: source organism: Salmonella enterica subsp. enterica serovar Typhimurium.
The target of the next experiment is HLA-B*27:03. The description is as above. The note with it: source organism: Salmonella enterica subsp. enterica serovar Typhimurium.
The target in a further experiment is HLA-B*46:01. The description is as above. The note with it: source organism: Salmonella enterica subsp. enterica serovar Typhimurium.
The target of another experiment is HLA-B*57:01. Described as above. The settings on record: source organism: Salmonella enterica subsp. enterica serovar Typhimurium.
Experiment [7] deals with HLA-A*01:01. As to the kind of experiment: IEDB peptide-MHC binding, purified MHC/competitive/fluorescence; ≥ and ≤ were set here for values at or beyond the usual limits of such assays.
In experiment [8] the target is HLA-A*02:01. The experiment is described as above.
Experiment [9] has as its target HLA-A*03:01. The description is as above.
In experiment [10] the target is HLA-A*11:01. Described as above.
Experiment [11] concerns the target HLA-A*24:02. Described as above.
Another experiment deals with HLA-A*25:01. The experiment is described as above.
In the next experiment the target is HLA-A*29:02. Described as above.
Another experiment deals with HLA-A*31:01. Described as above.
The target in the next experiment is HLA-A*68:02. Described as above.
Experiment [12] concerns the target HLA-B*07:02. The experiment is described as above.
The target of a further experiment is HLA-B*08:01. The description is as above.
The target of the next experiment is HLA-B*14:02. Described as above.
The target of experiment [13] is HLA-B*18:01. The description is as above.
The target of another experiment is HLA-B*35:01. The experiment is described as above.
In another experiment the target is HLA-B*37:01. The description is as above.
A further experiment concerns the target HLA-B*40:02. Described as above.
The target in another experiment is HLA-B*44:03. Described as above.
The next experiment addresses HLA-B*51:01. Described as above.
The next experiment addresses HLA-B*53:01. The experiment is described as above.
Experiment [14] deals with HLA-B*58:01. Described as above.
Experiment [15] deals with HLA-A*01:01. As to the kind of experiment: IEDB peptide-MHC binding, purified MHC/competitive/fluorescence; filed as Kd, often an IC50 or EC50 that approximates it; ≥ and ≤ were set here for values at or beyond the usual limits of such assays. The note with it: source organism: Pseudomonas sp. MIS38.
Experiment [16] has as its target HLA-A*02:01. The description is as above. The note with it: source organism: Pseudomonas sp. MIS38.
The target of the next experiment is HLA-A*02:03. The experiment is described as above. The settings on record: source organism: Pseudomonas sp. MIS38.
Experiment [17] has as its target HLA-A*02:06. Described as above. The note with it: source organism: Pseudomonas sp. MIS38.
In the next experiment the target is HLA-A*02:11. Described as above. The settings on record: source organism: Pseudomonas sp. MIS38.
The target of experiment [18] is HLA-A*02:12. The description is as above. The settings on record: source organism: Pseudomonas sp. MIS38.
In another experiment the target is HLA-A*02:16. The description is as above. The settings on record: source organism: Pseudomonas sp. MIS38.
The target of another experiment is HLA-A*02:19. The experiment is described as above. The settings on record: source organism: Pseudomonas sp. MIS38.
The next experiment addresses HLA-A*02:50. The experiment is described as above. The settings on record: source organism: Pseudomonas sp. MIS38.
Experiment [19] deals with HLA-A*03:01. The experiment is described as above. The settings on record: source organism: Pseudomonas sp. MIS38.
In experiment [20] the target is HLA-A*11:01. The experiment is described as above. The note with it: source organism: Pseudomonas sp. MIS38.
The target in experiment [21] is HLA-A*24:02. Described as above. The note with it: source organism: Pseudomonas sp. MIS38.
A further experiment deals with HLA-A*30:01. Described as above. The settings on record: source organism: Pseudomonas sp. MIS38.
The target in the next experiment is HLA-A*69:01. The description is as above. The settings on record: source organism: Pseudomonas sp. MIS38.
Experiment [22] deals with HLA-B*07:02. Described as above. The note with it: source organism: Pseudomonas sp. MIS38.
Experiment [23] has as its target HLA-B*15:01. The description is as above. The settings on record: source organism: Pseudomonas sp. MIS38.
The next experiment has as its target HLA-B*27:05. The description is as above. The note with it: source organism: Pseudomonas sp. MIS38.
Another experiment deals with HLA-B*40:01. The description is as above. The settings on record: source organism: Pseudomonas sp. MIS38.
The target in experiment [24] is HLA-B*58:01. The description is as above. The settings on record: source organism: Pseudomonas sp. MIS38.
The mark [25] stands for this setting: source organism: Gorilla gorilla gorilla.
Where [26] appears, read: source organism: Monodelphis domestica.

By Kd is commonly meant the equilibrium constant for the complex coming apart. The low end stands for a tighter complex, the high end for a looser complex. On to QVNDVLHSV, for which the Kd in the experiment with HLA-A*02:01 [1] is 41 nM; with HLA-A*02:06 [2] it was 3 nM; with HLA-A*02:12 [3] it was 91 nM; with HLA-A*03:01 [4] it was ≥ 20 µM; with HLA-B*15:01 [5] it was ≥ 20 µM; with HLA-B*18:01 [6], ≥ 20 µM. The Kd with HLA-B*27:03, with HLA-B*46:01 and with HLA-B*57:01 was ≥ 20 µM throughout.

A word on the IC50: it is the concentration needed to halve the response being measured. A low value points to greater potency in that assay. As for RYSHWTKL, the IC50 with HLA-A*01:01 [7] (setting [25]) was ≥ 20 µM; in the experiment with HLA-A*02:01 [8] (setting [25]) it was ≥ 20 µM; in the experiment with HLA-A*03:01 [9] (setting [25]), ≥ 20 µM; in the experiment with HLA-A*11:01 [10] (setting [25]) it was ≥ 20000 nM; with HLA-A*24:02 [11] (setting [25]), 161 nM; in the experiment with HLA-A*25:01 (setting [25]) it was ≥ 20 µM. The half-inhibitory concentration (IC50) was ≥ 20 µM with HLA-A*29:02 (setting [25]); ≥ 20 µM with HLA-A*31:01 (setting [25]); ≥ 20 µM in the experiment with HLA-A*68:02 (setting [25]); 17.3 µM with HLA-B*07:02 [12] (setting [25]); ≥ 20 µM with HLA-B*08:01 (setting [25]); ≥ 20 µM with HLA-B*14:02 (setting [25]). Moreover, the IC50 in the experiment with HLA-B*18:01 [13] (setting [25]), with HLA-B*35:01 (setting [25]), in the experiment with HLA-B*37:01 (setting [25]), with HLA-B*40:02 (setting [25]), in the experiment with HLA-B*44:03 (setting [25]) and in the experiment with HLA-B*51:01 (setting [25]) was ≥ 20 µM each time. Also, the IC50 with HLA-B*53:01 (setting [25]) and with HLA-B*58:01 [14] (setting [25]) was ≥ 20 µM in each case.

On to YMLKDSAPT, for which the equilibrium dissociation constant (Kd) is ≥ 20 µM in the experiment with HLA-A*01:01 [15]; 60.2 nM with HLA-A*02:01 [16]; 4.2 nM with HLA-A*02:03; 2.3 nM in the experiment with HLA-A*02:06 [17]; 9.4 nM with HLA-A*02:11; 1.9 nM with HLA-A*02:12 [18]. The Kd with HLA-A*02:16 was 0.5 nM; with HLA-A*02:19 it was 11.4 nM; with HLA-A*02:50 it was 30 nM; in the experiment with HLA-A*03:01 [19] it was ≥ 20 µM; in the experiment with HLA-A*11:01 [20] it was ≥ 20 µM; with HLA-A*24:02 [21] it was ≥ 20 µM. Also, the dissociation constant Kd is ≥ 20 µM in the experiment with HLA-A*30:01; 2000 nM with HLA-A*69:01; ≥ 20 µM in the experiment with HLA-B*07:02 [22]; 3.35 µM with HLA-B*15:01 [23]; ≥ 20 µM with HLA-B*27:05; ≥ 20 µM with HLA-B*40:01. The Kd in the experiment with HLA-B*58:01 [24] is ≥ 20 µM.

For the sequence YSLEYFQFVKK, the IC50 was ≥ 20 µM in the experiment with HLA-A*01:01 [7] (setting [26]); ≥ 20 µM with HLA-A*02:01 [8] (setting [26]); ≥ 20 µM in the experiment with HLA-A*03:01 [9] (setting [26]); 2900 nM in the experiment with HLA-A*11:01 [10] (setting [26]); ≥ 20000 nM with HLA-A*24:02 [11] (setting [26]); ≥ 20 µM in the experiment with HLA-A*25:01 (setting [26]). Moreover, the IC50 with HLA-A*29:02 (setting [26]), with HLA-A*31:01 (setting [26]), with HLA-A*68:02 (setting [26]), with HLA-B*07:02 [12] (setting [26]), in the experiment with HLA-B*08:01 (setting [26]) and with HLA-B*14:02 (setting [26]) was ≥ 20 µM each time. Further, the IC50 in the experiment with HLA-B*18:01 [13] (setting [26]), with HLA-B*35:01 (setting [26]), with HLA-B*37:01 (setting [26]), with HLA-B*40:02 (setting [26]), with HLA-B*44:03 (setting [26]) and with HLA-B*51:01 (setting [26]) was ≥ 20 µM throughout. For the same sequence, the half-maximal inhibitory concentration (IC50) in the experiment with HLA-B*53:01 (setting [26]) and in the experiment with HLA-B*58:01 [14] (setting [26]) was ≥ 20 µM in each case.
